Measurements from PMC12344411, “Cytosolic- and membrane-localized oxidized indole-3-acetic acid formation regulates developmental auxin transients” (Plant physiology, 2025).

Tests used:
TIR1 = biological target: T1, TIR1 (Arabidopsis thaliana, UniProt Q570C0); test: synthetic yeast system, TIR1-dependent degradation of YFP-IAA7 and YFP-IAA17 by flow cytometry; assay type: cell-based
T1 construct: with IAA7
T1 sequence (Q570C0 1-594): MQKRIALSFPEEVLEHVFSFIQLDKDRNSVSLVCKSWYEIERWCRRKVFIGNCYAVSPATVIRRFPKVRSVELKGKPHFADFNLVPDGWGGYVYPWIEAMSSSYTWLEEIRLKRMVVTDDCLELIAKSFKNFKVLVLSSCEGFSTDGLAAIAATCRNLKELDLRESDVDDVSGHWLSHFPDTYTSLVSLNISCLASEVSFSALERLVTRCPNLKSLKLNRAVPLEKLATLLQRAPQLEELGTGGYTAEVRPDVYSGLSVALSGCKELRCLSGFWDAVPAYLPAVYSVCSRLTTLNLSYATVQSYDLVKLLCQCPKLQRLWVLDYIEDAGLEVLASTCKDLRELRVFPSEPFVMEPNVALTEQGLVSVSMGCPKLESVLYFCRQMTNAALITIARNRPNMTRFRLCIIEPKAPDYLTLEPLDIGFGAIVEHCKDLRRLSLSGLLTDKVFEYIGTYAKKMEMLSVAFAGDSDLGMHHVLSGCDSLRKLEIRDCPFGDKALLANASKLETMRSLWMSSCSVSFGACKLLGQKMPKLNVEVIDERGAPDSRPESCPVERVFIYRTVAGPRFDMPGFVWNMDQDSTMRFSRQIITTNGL
T1 sequence (Q38825 1-243 partner): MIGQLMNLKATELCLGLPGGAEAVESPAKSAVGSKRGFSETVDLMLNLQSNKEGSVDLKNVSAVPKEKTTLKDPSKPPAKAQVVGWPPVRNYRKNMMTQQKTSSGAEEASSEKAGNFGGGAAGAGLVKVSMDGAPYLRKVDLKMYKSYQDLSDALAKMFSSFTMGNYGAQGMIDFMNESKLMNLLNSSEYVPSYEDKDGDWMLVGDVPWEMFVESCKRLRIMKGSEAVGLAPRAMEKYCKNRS

[1] = biological target: TIR1 (Arabidopsis thaliana) (UniProt Q570C0); test: BLI; conditions: cited from earlier work
[2] = biological target: TIR1 (Arabidopsis thaliana) (UniProt Q570C0); test: BLI; conditions: cited from earlier work; remark: listed apart in the source
IAA7 = biological target: T2, IAA7 (Arabidopsis thaliana, UniProt Q38825); test: BLI
T2 chain: T1 sequence (Q38825 1-243 partner)

## O=C(O)Cc1c[nH]c2ccccc12 [IAA, indole-3-acetic acid]
TIR1
  synthetic yeast system, TIR1-dependent degradation of YFP-IAA7 and YFP-IAA17 by: signals from YFP-IAA7 and YFP-IAA17 decreased rapidly upon addition of IAA

## IAA7 (from UniProt Q38825)
[1]
  Kd: 30 nM
[2]
  Kd: 20000 nM

B1: TIR1 (protein)
chain: T1 sequence (Q570C0 1-594)
modifications: oxIAA (saturating)
IAA7
  Kd: 200 nM
